{"source": "patent US20090029376", "assay_in_all_cases": "cleavage_in_vitro", "key": {"[1]": {"molecular_target": "T1, BamHI-HF E163A/E167T (Bacillus amyloliquefaciens) (UniProt P23940)", "T1 sequence": "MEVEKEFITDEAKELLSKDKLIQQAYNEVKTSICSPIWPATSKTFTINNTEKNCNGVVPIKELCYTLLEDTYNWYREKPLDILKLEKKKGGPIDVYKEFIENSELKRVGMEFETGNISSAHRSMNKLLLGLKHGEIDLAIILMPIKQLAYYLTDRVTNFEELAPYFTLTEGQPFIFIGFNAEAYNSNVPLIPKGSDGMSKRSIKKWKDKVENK", "conditions": "NEB4, 37 C"}, "[2]": {"tested_on": "T2, BsmBI (Bacillus stearothermophilus)", "T2 sequence": "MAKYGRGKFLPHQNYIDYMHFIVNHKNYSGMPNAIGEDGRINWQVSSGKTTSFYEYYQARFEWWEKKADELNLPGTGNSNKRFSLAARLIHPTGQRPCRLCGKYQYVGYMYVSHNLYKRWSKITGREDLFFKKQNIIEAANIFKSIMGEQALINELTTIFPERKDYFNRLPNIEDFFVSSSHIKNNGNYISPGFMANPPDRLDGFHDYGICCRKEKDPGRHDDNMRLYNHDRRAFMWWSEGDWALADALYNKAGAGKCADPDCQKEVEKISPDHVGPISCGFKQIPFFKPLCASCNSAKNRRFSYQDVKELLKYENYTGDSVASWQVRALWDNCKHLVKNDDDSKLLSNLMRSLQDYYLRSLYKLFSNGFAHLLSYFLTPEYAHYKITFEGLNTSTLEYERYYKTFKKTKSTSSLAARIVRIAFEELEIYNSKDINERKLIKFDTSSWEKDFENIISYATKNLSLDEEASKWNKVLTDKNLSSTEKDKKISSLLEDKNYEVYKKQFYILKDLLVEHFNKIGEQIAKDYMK", "conditions": "NEB4, 55 C"}, "[3]": {"tested_on": "T3, BstXI-HF N65A (Bacillus stearothermophilus)", "T3 sequence": "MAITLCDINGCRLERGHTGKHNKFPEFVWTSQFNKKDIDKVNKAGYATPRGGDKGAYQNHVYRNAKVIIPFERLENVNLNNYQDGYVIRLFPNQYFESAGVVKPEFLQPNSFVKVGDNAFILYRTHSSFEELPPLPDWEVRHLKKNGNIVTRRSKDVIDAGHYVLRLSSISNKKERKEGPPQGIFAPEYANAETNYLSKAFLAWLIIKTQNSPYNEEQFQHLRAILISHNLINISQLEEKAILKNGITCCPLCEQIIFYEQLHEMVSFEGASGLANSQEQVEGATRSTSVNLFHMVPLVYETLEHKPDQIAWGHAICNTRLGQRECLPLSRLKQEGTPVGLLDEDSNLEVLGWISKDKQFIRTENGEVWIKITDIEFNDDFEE", "conditions": "NEB4, 55 C"}, "[4]": {"molecular_target": "T4, HpaI (Haemophilus parainfluenzae) (UniProt P29537)", "T4 sequence": "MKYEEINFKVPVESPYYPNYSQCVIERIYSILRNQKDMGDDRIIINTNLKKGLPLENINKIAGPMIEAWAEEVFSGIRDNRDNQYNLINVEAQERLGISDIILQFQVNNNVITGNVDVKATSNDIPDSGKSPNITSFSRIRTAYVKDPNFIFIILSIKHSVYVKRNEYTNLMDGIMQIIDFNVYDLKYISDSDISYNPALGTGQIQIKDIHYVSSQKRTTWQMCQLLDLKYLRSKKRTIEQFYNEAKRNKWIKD", "conditions": "NEB4, 37 C"}, "[5]": {"tested_on": "T5, NcoI-HF A2T/R31A (Nocardia corallina)", "T5 sequence": "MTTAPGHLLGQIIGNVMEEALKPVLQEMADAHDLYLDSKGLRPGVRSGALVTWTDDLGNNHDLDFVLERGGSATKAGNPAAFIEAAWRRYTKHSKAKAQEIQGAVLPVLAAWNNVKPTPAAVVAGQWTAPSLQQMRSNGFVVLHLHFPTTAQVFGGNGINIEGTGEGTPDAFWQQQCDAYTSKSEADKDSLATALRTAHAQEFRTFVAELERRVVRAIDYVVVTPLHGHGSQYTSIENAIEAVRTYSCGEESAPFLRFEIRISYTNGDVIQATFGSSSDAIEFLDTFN", "conditions": "NEB4, 37 C"}, "[6]": {"tested_on": "T6, SapI (Saccharopolyspora sp.)", "T6 sequence": "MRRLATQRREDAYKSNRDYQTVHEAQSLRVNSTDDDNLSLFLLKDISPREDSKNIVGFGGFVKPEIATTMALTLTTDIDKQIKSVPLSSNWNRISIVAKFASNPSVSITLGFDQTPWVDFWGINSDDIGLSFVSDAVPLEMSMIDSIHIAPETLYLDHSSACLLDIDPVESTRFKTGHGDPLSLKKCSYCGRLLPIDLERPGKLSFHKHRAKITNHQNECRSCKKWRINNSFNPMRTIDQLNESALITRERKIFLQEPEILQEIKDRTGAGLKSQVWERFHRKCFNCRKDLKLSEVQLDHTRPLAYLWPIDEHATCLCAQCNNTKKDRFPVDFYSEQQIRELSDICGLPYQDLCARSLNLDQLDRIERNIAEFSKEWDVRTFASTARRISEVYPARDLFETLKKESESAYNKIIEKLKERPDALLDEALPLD", "conditions": "NEB4, 37 C"}, "[7]": {"molecular_target": "T7, ScaI-HF H193A/S201F (Streptomyces caespitosus) (UniProt O52691)", "T7 sequence": "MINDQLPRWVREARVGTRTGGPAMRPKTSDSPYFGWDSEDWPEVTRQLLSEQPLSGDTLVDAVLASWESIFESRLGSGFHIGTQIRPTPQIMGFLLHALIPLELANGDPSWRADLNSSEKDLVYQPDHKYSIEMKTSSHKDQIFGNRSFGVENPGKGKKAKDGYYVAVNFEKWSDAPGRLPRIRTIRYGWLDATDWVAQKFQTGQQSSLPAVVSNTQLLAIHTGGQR", "conditions": "NEB2, 37 C"}, "[8]": {"tested_on": "T8, SphI (Streptomyces phaeochromogenes)", "T8 sequence": "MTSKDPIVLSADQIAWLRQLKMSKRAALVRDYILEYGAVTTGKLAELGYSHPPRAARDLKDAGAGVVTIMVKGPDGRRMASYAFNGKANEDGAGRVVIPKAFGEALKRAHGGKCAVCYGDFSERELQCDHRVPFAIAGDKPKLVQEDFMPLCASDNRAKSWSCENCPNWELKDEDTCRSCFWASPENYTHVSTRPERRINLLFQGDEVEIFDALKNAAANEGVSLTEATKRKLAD", "conditions": "NEB4, 37 C"}, "[9]": {"tested_on": "T9, SphI-HF K100A (Streptomyces phaeochromogenes)", "T9 sequence": "T8 sequence with K100A", "conditions": "NEB4, 37 C"}}, "note": "Residue numbers refer to the chain shown, from its start."}
{"substance": "lambda phage DNA", "values": [{"measurement": "activity (fidelity index)", "setting": "[1]", "result": "> 4000"}, {"measurement": "activity (fidelity index)", "setting": "[2]", "result": 4}, {"measurement": "activity (fidelity index)", "setting": "[3]", "result": "> 250"}, {"measurement": "activity (fidelity index)", "setting": "[4]", "result": 16}, {"measurement": "activity (fidelity index)", "setting": "[5]", "result": "> 16000"}, {"measurement": "activity (fidelity index)", "setting": "[6]", "result": 16}, {"measurement": "activity (fidelity index)", "setting": "[7]", "result": 120}, {"measurement": "activity (fidelity index)", "setting": "[8]", "result": 16}, {"measurement": "activity (fidelity index)", "setting": "[9]", "result": "> 2000"}]}
